PMC3021515

Assays:
DmD1525E (Drosophila) [1] = target: DmD1525E (Drosophila) (UniProt P35500)
DmD838C (Drosophila) [2] = target: DmD838C (Drosophila) (UniProt P35500)
DmE1523N (Drosophila) [3] = target: DmE1523N (Drosophila) (UniProt P35500)
DmE896C (Drosophila) [4] = target: DmE896C (Drosophila) (UniProt P35500)
DmG904N (Drosophila) [5] = target: DmG904N (Drosophila) (UniProt P35500)
DmI1529K (Drosophila) [6] = target: DmI1529K (Drosophila) (UniProt P35500)
DmL899C (Drosophila) [7] = target: DmL899C (Drosophila) (UniProt P35500)
DmNav1 (Drosophila) [8] = target: DmNav1 (Drosophila) (UniProt P35500)
mNav1.6 (mouse) [9] = target: mNav1.6 (mouse) (UniProt Q9WTU3)
rNav1.2 (rat) [10] = target: rNav1.2 (rat) (UniProt P04775)
rNav1.3 (rat) [11] = target: rNav1.3 (rat) (UniProt P08104)
DmD1525E (Drosophila) [12] = target: DmD1525E (Drosophila) (UniProt P35500); remark: listed apart in the source
DmD838C (Drosophila) [13] = target: DmD838C (Drosophila) (UniProt P35500); remark: listed apart in the source
DmE1523N (Drosophila) [14] = target: DmE1523N (Drosophila) (UniProt P35500); remark: listed apart in the source
DmE896C (Drosophila) [15] = target: DmE896C (Drosophila) (UniProt P35500); remark: listed apart in the source
DmG904N (Drosophila) [16] = target: DmG904N (Drosophila) (UniProt P35500); remark: listed apart in the source
DmI1529K (Drosophila) [17] = target: DmI1529K (Drosophila) (UniProt P35500); remark: listed apart in the source
[18] = target: DmI1529K/R1530Y (Drosophila) (UniProt P35500)
DmI1534L (Drosophila) = DmI1534L (Drosophila) (UniProt P35500)
DmK1526L (Drosophila) = DmK1526L (Drosophila) (UniProt P35500)
DmL899C (Drosophila) [19] = target: DmL899C (Drosophila) (UniProt P35500); remark: listed apart in the source
DmM5 (Drosophila) = DmM5 (Drosophila) (UniProt P35500)
DmNav1 (Drosophila) [20] = target: DmNav1 (Drosophila) (UniProt P35500); remark: listed apart in the source
DmR1530Y (Drosophila) = DmR1530Y (Drosophila) (UniProt P35500)
DmT1532D (Drosophila) = DmT1532D (Drosophila) (UniProt P35500)
[21] = target: L(1.2)DmNav1 (Drosophila) (UniProt P35500)
L(Dm)Nav1.2 (rat) = L(Dm)Nav1.2 (rat) (UniProt P04775)
mNav1.6 (mouse) [22] = target: mNav1.6 (mouse) (UniProt Q9WTU3); remark: listed apart in the source
rNav1.2 (rat) [23] = target: rNav1.2 (rat) (UniProt P04775); remark: listed apart in the source
rNav1.3 (rat) [24] = target: rNav1.3 (rat) (UniProt P08104); remark: listed apart in the source
rNav1.3 (rat) [25] = target: rNav1.3 (rat) (UniProt P08104); remark: listed apart in the source
DmI1529K (Drosophila) [26] = target: DmI1529K (Drosophila) (UniProt P35500); remark: listed apart in the source

BmK IT2 (natural protein)
EC50 of BmK IT2 from the currents it induces at −40 mV (activation threshold), two-electrode voltage clamp, Xenopus oocytes (DmD1525E (Drosophila) [1]): 3.3 µM
EC50 of BmK IT2 from the currents it induces at −40 mV (activation threshold), two-electrode voltage clamp, Xenopus oocytes (DmD838C (Drosophila) [2]): 3.6 µM
EC50 of BmK IT2 from the currents it induces at −40 mV (activation threshold), two-electrode voltage clamp, Xenopus oocytes (DmE1523N (Drosophila) [3]): 2.4 µM
EC50 of BmK IT2 from the currents it induces at −40 mV (activation threshold), two-electrode voltage clamp, Xenopus oocytes (DmE896C (Drosophila) [4]): > 35 µM
EC50 of BmK IT2 from the currents it induces at −40 mV (activation threshold), two-electrode voltage clamp, Xenopus oocytes (DmG904N (Drosophila) [5]): > 50 µM
EC50 of BmK IT2 from the currents it induces at −40 mV (activation threshold), two-electrode voltage clamp, Xenopus oocytes (DmI1529K (Drosophila) [6]): 15.6 µM
EC50 of BmK IT2 from the currents it induces at −40 mV (activation threshold), two-electrode voltage clamp, Xenopus oocytes (DmL899C (Drosophila) [7]): > 35 µM
EC50 of BmK IT2 from the currents it induces at −40 mV (activation threshold), two-electrode voltage clamp, Xenopus oocytes (DmNav1 (Drosophila) [8]): 2.9 µM
EC50 of BmK IT2 from the currents it induces at −40 mV (activation threshold), two-electrode voltage clamp, Xenopus oocytes (mNav1.6 (mouse) [9]): > 50 µM
EC50 of BmK IT2 from the currents it induces at −40 mV (activation threshold), two-electrode voltage clamp, Xenopus oocytes (rNav1.2 (rat) [10]): > 50 µM
EC50 of BmK IT2 from the currents it induces at −40 mV (activation threshold), two-electrode voltage clamp, Xenopus oocytes (rNav1.3 (rat) [11]): > 20 µM
shift of the half-maximal activation voltage (ΔV1/2) by 2 µM BmK IT2 with prepulse, two-electrode voltage clamp, Xenopus oocytes (DmD1525E (Drosophila) [12]): -9.73 mV
shift of the half-maximal activation voltage (ΔV1/2) by 2 µM BmK IT2 with prepulse, two-electrode voltage clamp, Xenopus oocytes (DmD838C (Drosophila) [13]): -10.4 mV
shift of the half-maximal activation voltage (ΔV1/2) by 2 µM BmK IT2 with prepulse, two-electrode voltage clamp, Xenopus oocytes (DmE1523N (Drosophila) [14]): -12.1 mV
shift of the half-maximal activation voltage (ΔV1/2) by 2 µM BmK IT2 with prepulse, two-electrode voltage clamp, Xenopus oocytes (DmE896C (Drosophila) [15]): -1.86 mV
shift of the half-maximal activation voltage (ΔV1/2) by 2 µM BmK IT2 with prepulse, two-electrode voltage clamp, Xenopus oocytes (DmG904N (Drosophila) [16]): 0.66 mV
shift of the half-maximal activation voltage (ΔV1/2) by 2 µM BmK IT2 with prepulse, two-electrode voltage clamp, Xenopus oocytes (DmI1529K (Drosophila) [17]): 0.12 mV
shift of the half-maximal activation voltage (ΔV1/2) by 2 µM BmK IT2 with prepulse, two-electrode voltage clamp, Xenopus oocytes [18]: -5.06 mV
shift of the half-maximal activation voltage (ΔV1/2) by 2 µM BmK IT2 with prepulse, two-electrode voltage clamp, Xenopus oocytes (DmI1534L (Drosophila)): -7.99 mV
shift of the half-maximal activation voltage (ΔV1/2) by 2 µM BmK IT2 with prepulse, two-electrode voltage clamp, Xenopus oocytes (DmK1526L (Drosophila)): -12.3 mV
shift of the half-maximal activation voltage (ΔV1/2) by 2 µM BmK IT2 with prepulse, two-electrode voltage clamp, Xenopus oocytes (DmL899C (Drosophila) [19]): -1.39 mV
shift of the half-maximal activation voltage (ΔV1/2) by 2 µM BmK IT2 with prepulse, two-electrode voltage clamp, Xenopus oocytes (DmM5 (Drosophila)): -6.56 mV
shift of the half-maximal activation voltage (ΔV1/2) by 2 µM BmK IT2 with prepulse, two-electrode voltage clamp, Xenopus oocytes (DmNav1 (Drosophila) [20]): -11.9 mV
shift of the half-maximal activation voltage (ΔV1/2) by 2 µM BmK IT2 with prepulse, two-electrode voltage clamp, Xenopus oocytes (DmR1530Y (Drosophila)): -5.11 mV
shift of the half-maximal activation voltage (ΔV1/2) by 2 µM BmK IT2 with prepulse, two-electrode voltage clamp, Xenopus oocytes (DmT1532D (Drosophila)): -9.44 mV
shift of the half-maximal activation voltage (ΔV1/2) by 2 µM BmK IT2 with prepulse, two-electrode voltage clamp, Xenopus oocytes [21]: -12.5 mV
shift of the half-maximal activation voltage (ΔV1/2) by 2 µM BmK IT2 with prepulse, two-electrode voltage clamp, Xenopus oocytes (L(Dm)Nav1.2 (rat)): -5.05 mV
shift of the half-maximal activation voltage (ΔV1/2) by 2 µM BmK IT2 with prepulse, two-electrode voltage clamp, Xenopus oocytes (mNav1.6 (mouse) [22]): 0.32 mV
shift of the half-maximal activation voltage (ΔV1/2) by 2 µM BmK IT2 with prepulse, two-electrode voltage clamp, Xenopus oocytes (rNav1.2 (rat) [23]): 1.14 mV
shift of the half-maximal activation voltage (ΔV1/2) by 2 µM BmK IT2 with prepulse, two-electrode voltage clamp, Xenopus oocytes (rNav1.3 (rat) [24]): 0.9 mV
shift of the half-maximal activation voltage (ΔV1/2) by 50 µM BmK IT2, two-electrode voltage clamp, Xenopus oocytes (data not shown) (rNav1.3 (rat) [25]): -4.84 mV
EC50 of BmK IT2 from the currents it induces at −40 mV (activation threshold), two-electrode voltage clamp, Xenopus oocytes (unit as printed in the text; the table gives µM) (DmI1529K (Drosophila) [26]): 0.0156 µM
